Laboratory results from article PMC10069166 (Heliyon, 2023).
Where a chain is given by its changes, count along the chain named. Where two headings read alike, the source gives them in different places.

B1: 80R_5 antibody (antibody, V domains shown)
VH: EVQLVQSGGGVVQPGKSLRLSCKASGFAFSNYAMHWVRQAPGKGLEWVAVISYDGSYKYYADSVKGRFTISRDNSKNTLYLQMNSLRAEDTAVYYCARDRSYYLDYWGQGTLVTVSS
VL: TTLTQSPATLSLSPGERATLSCKASEDIGTALAWYQQKPGQAPRPLIFDGAILAPGIPDRFSGSGSGTDFTLTISRLEPEDFAVYYCHNVYSWPPTFGQGTKVEVK
B2: 80R_23 antibody (antibody, V domains shown)
VH: B1 VH with K23V, A28D, S30K, N31S, R100N, S101A
VL: B1 VL with K23H, A31N, I52Q, H88Q, N89Q, V90I, S92N, T96S
B3: 80R_22 antibody (antibody, V domains shown)
VH: B1 VH with K23V, A28D, S30K, N31S, R100N, S101A
VL: B1 VL with K23H, D49Y, G50A, I52Q, H88A, N89Q, V90Y, Y91W, W93L
B4: 80R_10 antibody (antibody, V domains shown)
VH: B1 VH with K23V, A28D, S30K, N31S, S56R
VL: TTLTQSPATLSLSPGERATLSCHASEDIGTALAWYQQKPGQAPRPLIFYAAQLAPGIPDRFSGSGSGTDFTLTISRLEPEDFAVYYCFQSWTLPLTFGQGTKVEVK
B5: 80R antibody (antibody, V domains shown)
VH: B1 VH with K23A, N31S, Y57N
VL: TTLTQSPATLSLSPGERATLSCRASQSVRSNLAWYQQKPGQAPRPLIYDASTRATGIPDRFSGSGSGTDFTLTISRLEPEDFAVYYCQQRSNWPPTFGQGTKVEVK
B6: 80R_7 antibody (antibody, V domains shown)
VH: B1 VH with K23Q, A28D, S30K, N31S, Y57I, Y59H
VL: B4 VL with H23I, E26Q, Y49D, A50G, Q52I, S66A, F88M, S90T, L95V
B7: 80R_6 antibody (antibody, V domains shown)
VH: B1 VH with K23T, A28N, N31E
VL: B4 VL with H23K, T30S, A31N, Y49D, S90I, W91Y, L93W, L95P
B8: 80R_21 antibody (antibody, V domains shown)
VH: B1 VH with K23V, A28D, N31K, R100N, S101A
VL: B1 VL with A31N, G50A, H88M, N89Q, V90I, S92N, T96S
B9: 80R_19 antibody (antibody, V domains shown)
VH: B1 VH with K23V, A28D, S30K, N31S, R100N, S101A
VL: B4 VL with A31N, Y49D, F88M, S90I, W91H, T92N, L93W, L95P, T96S
B10: 80R_8 antibody (antibody, V domains shown)
VH: B1 VH with K23V, A28D, S30K, S56K
VL: B1 VL with K23I, E26Q, A31N, S66A, H88Q, N89Q, V90T, S92N
B11: 80R_18 antibody (antibody, V domains shown)
VH: B1 VH with K23V, A28N, N31E, R100N, S101A
VL: B1 VL with K23Q, A31N, G50A, I52Q, D69Q, H88Q, N89Q, V90I, S92N, T96S

Experiments:
Experiment in all cases: BLI
[1] = target: T1, SARS-CoV-2 B.1.617.2 Spike S1+S2 trimer (ECD, His tag) (SARS-CoV-2, Delta (B.1.617.2), L452R | T478K)
[2] = target: SARS-CoV-2 Spike Trimer, His Tag (BA.5/Omicron) (SARS-CoV-2, Omicron BA.5, strain)
[3] = target: T1, SARS-CoV-2 B.1.617.2 Spike S1+S2 trimer …; remark: listed apart in the source
[4] = target: Wuhan S6P SARS-CoV-2 full length spike trimer (SARS-CoV-2, Wuhan, UniProt P0DTC2, stabilised)
[5] = target: Wild-type SARS-CoV-2 full length spike trimer (SARS-CoV-2, wild type (Wuhan-Hu-1), UniProt P0DTC2)

Binder	Kd [5] [nM]	further results
B1	0.468	Kd [1]: 0.441 nM; Kd [2]: 1.12 nM; Kd [3]: 0.443 nM; Kd [4]: < 0.001 nM
B2	0.858	Kd [3]: 0.625 nM
B3	1.39	–
B4	1.82	–
B5	–	binding result [5]: no binding
B6	2.85	–
B7	4.16	–
B8	3.1	–
B9	0.845	–
B10	114	–
B11	2.68	–
